Test results reported in patent US20230212294A1 (MINGHUI PHARMACEUTICAL SHANGHAI, published 2023).
Numbering of substitutions follows the chain as printed.

T1: B7-H3 endogenously expressed on human tumor cell lines (human, UniProt Q5ZPR3 29-534)
T1 construct: whole, on cells; The cell line is named in the assay or readout field of each row; also called NCI-H322 cells endogenously expressing B7-H3; B7-H3-positive human tumor cell lines NCI-H1975, BxPC-3, Calu-6
T1 sequence (looked up): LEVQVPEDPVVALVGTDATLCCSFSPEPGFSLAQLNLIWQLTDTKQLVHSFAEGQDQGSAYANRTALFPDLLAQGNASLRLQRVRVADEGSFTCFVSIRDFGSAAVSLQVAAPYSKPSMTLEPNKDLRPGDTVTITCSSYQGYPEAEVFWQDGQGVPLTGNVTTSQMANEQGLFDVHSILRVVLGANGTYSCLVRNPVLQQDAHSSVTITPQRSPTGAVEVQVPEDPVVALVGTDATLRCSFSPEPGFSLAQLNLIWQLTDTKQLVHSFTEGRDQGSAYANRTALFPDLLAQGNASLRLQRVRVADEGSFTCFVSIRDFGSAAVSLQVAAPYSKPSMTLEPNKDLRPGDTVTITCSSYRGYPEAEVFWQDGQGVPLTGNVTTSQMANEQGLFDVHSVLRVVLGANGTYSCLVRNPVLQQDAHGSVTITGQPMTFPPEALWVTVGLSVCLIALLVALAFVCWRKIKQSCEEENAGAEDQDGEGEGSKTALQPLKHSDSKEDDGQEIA

T2: B7-H3 on CHOK cells overexpressing B7-H3
T2 construct: whole, on cells; also called CHO cells that artificially express B7-H3; B7-H3-expressing CHO cells
T2 sequence (Q5ZPR3 whole entry, species assumed, looked up): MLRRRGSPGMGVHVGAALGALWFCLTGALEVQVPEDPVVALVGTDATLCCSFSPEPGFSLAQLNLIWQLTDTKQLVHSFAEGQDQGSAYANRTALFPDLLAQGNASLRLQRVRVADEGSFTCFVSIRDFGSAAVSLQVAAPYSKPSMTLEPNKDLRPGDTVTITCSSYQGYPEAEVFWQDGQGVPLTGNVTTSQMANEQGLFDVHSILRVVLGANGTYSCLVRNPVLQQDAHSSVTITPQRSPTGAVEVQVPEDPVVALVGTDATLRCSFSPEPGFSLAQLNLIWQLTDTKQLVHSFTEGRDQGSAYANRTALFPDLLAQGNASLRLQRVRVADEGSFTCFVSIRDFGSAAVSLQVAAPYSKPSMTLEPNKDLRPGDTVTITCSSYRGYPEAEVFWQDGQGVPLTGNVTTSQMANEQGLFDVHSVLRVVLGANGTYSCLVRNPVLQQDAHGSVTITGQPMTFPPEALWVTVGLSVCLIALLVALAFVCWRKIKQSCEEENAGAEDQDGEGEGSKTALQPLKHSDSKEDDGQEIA

B1: IL-P5-C06-H2L2 (antibody, V domains shown)
VH: QVQLVQSGAEVKKPGASVKVSCKGSGYTFTDYAIHWGRQAPGQGLEWIGIINTYNGNSNYAQKFQGRATMTRDTSTSTAYMELSRLRSEDTAVYYCARNYGSSFNWYFDVWGQGTTVTVSS
VL: DIQLTQSPSSLSASVGDRITITCRASSSISSNYLHWYQQKPGKAPKLLIYSTSNLASGVPSRFSGSGSGTDFTLTISSVQPEDFATYYCQQYSGYPLTFGQGTKLELK
notes: Humanized from IL-P5-C06; full-length antibody; also called ILP5C06huVH2 + ILP5C06huVL2
B2: IL-P5-C06-H1L1 (antibody, V domains shown)
VH: B1 VH with G37A, R72V, T74K
VL: B1 VL with L11M, A44S, F72Y
notes: Humanized from IL-P5-C06; full-length antibody; also called ILP5C06huVH1 + ILP5C06huVL1
B3: IL-P5-C06-H1L3 (antibody, V domains shown)
VH: B1 VH with G37A, R72V, T74K
VL: B1 VL with I19V, V79L
notes: Humanized from IL-P5-C06; full-length antibody; also called ILP5C06huVH1 + ILP5C06huVL3
B4: IL-P5-C06-H2L4 (antibody, V domains shown)
VH: B1 VH
VL: B1 VL with L4M, I19V, A56Q, V79L
notes: Humanized from IL-P5-C06; full-length antibody; also called ILP5C06huVH2 + ILP5C06huVL4
B5: IL-P7-C05-H3L1 (antibody, V domains shown)
VH: EVQLVESGGGLVQPGGSLRLSCAASGFTFSSYGMSWVRQAPGKGLELVAAINSNGGSTYYADSVKGRFTISRDNAKNTLYLQMSSLRAEDTAVYYCTRNEEFRRGLAYWGQGTLVTVSS
VL: DIQMTQSPSSLSASVGDRVTITCRASENIYSNLAWYQQKPGKAPKLLVYAATNLADGVPSRFSGSGSGTDYTLTISSLQPEDFATYYCQHFWGTPPWTFGQGTKLEIK
notes: Humanized from IL-P7-C05; full-length antibody; also called ILP7C05huVH3 + ILP7C05huVL1
B6: IL-P7-C05-H4L1 (antibody, V domains shown)
VH: B5 VH with G33A
VL: B5 VL
notes: Humanized from IL-P7-C05; full-length antibody; also called ILP7C05huVH4 + ILP7C05huVL1
B7: IL-P7-C05-H2L1 (antibody, V domains shown)
VH: B5 VH with A50T, S57T
VL: B5 VL
notes: Humanized from IL-P7-C05; full-length antibody; also called ILP7C05huVH2 + ILP7C05huVL1
B8: IL-P7-C05-H2L2 (antibody, V domains shown)
VH: B5 VH with A50T, S57T
VL: B5 VL with A55Q, D56S
notes: Humanized from IL-P7-C05; full-length antibody; also called ILP7C05huVH2 + ILP7C05huVL2
B9: IL-P7-C05-H1L1 (antibody, V domains shown)
VH: B5 VH with A50T, S57T, A61P, N77H
VL: B5 VL
notes: Humanized from IL-P7-C05; full-length antibody; also called ILP7C05huVH1 + ILP7C05huVL1
B10: IL-P7-C05-H3L3 (antibody, V domains shown)
VH: B5 VH
VL: B5 VL with V48I, T52S, A55Q, D56S
notes: Humanized from IL-P7-C05; full-length antibody; also called ILP7C05huVH3 + ILP7C05huVL3

Each binder was assayed against T1, B7-H3 endogenously expressed on human … (assay: flow cytometry on NCI-H322 cells).
Description: (§1) CHOK cells overexpressing B7-H3 or NCI-H322 cells endogenously expressing B7-H3 were added to a round-bottom 96-well plate at 100,000 cells per well, centrifuged to remove the supernatant, and then added with a gradient-diluted anti-B7-H3 antibody and incubated at 4 degrees for 1 h. After incubation, the cells were washed twice with FACS buffer (PBS containing 2% FBS), then added with fluorescent-labeled goat anti-human secondary antibody (Abcam, ab98596) and incubated for 0.5 h. After incubation, the cells were washed twice with FACS buffer, then resuspended with FACS buffer and detected with flow cytometry (Beckman, cytoFlex).

Binder | EC50 [µg/mL]
B1 | 0.0919
B2 | 0.0895
B3 | 0.0829
B4 | 0.0576
B5 | 0.0109
B6 | 0.0138
B7 | 0.0144
B8 | 0.0145
B9 | 0.0107
B10 | 0.0106

These binders were tested against T2, B7-H3 on CHOK cells overexpressing B7-H3 (assay: flow cytometry on CHOK cells overexpressing B7-H3).
Description: as §1

Binder | EC50 [µg/mL]
B1 | 1.12
B2 | 1.05
B3 | 0.941
B4 | 0.747
B5 | 0.454
B6 | 0.468
B7 | 0.426
B8 | 0.455
B9 | 0.426
B10 | 0.431
